Reference: paper doi:10.1101/2022.10.25.513744
Where “and” joins values, the source holds several entries; their conditions need not be identical. Equal values may be shown once.

Assays:
[1] = target: Miro1^P13V ΔTM (UniProt Q8IXI2); assay: mass photometry
[2] = target: Miro1^P13V-Strep (UniProt Q8IXI2); assay: pull-down

Sequence of UniProt Q8IXI2 (Q8IXI2 whole entry P13V): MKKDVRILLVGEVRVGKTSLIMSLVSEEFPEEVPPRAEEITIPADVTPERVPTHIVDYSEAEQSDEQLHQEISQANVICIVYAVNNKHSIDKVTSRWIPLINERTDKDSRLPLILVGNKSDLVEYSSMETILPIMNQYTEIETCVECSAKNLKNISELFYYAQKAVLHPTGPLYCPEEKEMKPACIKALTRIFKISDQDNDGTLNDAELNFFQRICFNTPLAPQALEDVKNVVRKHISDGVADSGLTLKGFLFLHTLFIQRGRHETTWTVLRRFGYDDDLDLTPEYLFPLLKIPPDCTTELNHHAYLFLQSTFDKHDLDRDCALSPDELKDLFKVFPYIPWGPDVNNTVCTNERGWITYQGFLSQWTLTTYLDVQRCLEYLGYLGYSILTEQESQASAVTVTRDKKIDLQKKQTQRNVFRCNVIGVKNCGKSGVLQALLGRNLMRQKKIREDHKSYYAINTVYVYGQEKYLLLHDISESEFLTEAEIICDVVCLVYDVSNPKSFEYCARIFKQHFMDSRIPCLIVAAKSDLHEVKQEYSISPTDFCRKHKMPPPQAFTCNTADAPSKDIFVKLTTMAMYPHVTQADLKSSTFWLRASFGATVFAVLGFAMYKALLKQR

Molecule	percent forming dimers [1] [%]	stoichiometry N [1]	reduction of the TRAK1:Miro1-Strep band intensity against Miro1^WT [2] [%]
Miro1^P13V ΔTM (from UniProt Q8IXI2 1-618) (domain or fragment)	3	3 and 4	
TRAK1^562-635 (domain or fragment) MSFSSRSYLPEKLQIVKPLEGSATLHHWQQLAQPHLGGILDPRPGVVTKGFRTLDVDLDEVYCLNDFEEDDTGD			30
